This is an account of results in patent publication CN111995674A (INST MILITARY MEDICINE ACADEMY MILITARY SCIENCES PLA, dated 2020).

The test deals with T1, 肉毒毒素AHC片段 (UniProt P0DPI1 873-1296).
T1 construct: domain: AHC片段
Nature of the test: ELISA, coated antigen, anti-human IgG-HRP.

T1 sequence (P0DPI1 873-1296 limits assumed): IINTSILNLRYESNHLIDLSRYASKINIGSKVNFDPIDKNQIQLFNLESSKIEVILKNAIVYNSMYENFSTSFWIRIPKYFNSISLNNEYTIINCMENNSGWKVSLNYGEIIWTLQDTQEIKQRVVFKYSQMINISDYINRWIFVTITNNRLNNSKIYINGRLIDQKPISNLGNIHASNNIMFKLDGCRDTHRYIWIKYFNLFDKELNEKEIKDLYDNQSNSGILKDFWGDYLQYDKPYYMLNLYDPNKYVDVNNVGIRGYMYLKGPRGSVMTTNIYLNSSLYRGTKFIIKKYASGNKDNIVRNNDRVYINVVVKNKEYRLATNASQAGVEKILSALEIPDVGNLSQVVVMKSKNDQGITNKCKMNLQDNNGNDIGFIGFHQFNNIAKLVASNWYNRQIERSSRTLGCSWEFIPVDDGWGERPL

B1: 人鼠嵌合全抗体mhC3 (antibody, V domains shown)
VH: EVQLVESGGDLVKPGGSLKLSCAASGFTFNTYAMNWVRQTPGKGLEWVARIRSKSNNYATYYADSVKDRFTISRDDSQSMLYLQMNNLKTEDTAMYYCVTPYYGNYADWFTYWGQGTSVTVSS
VL: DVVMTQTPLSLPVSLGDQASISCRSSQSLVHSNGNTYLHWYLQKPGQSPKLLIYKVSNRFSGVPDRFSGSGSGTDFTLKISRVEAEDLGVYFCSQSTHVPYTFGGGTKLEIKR
notes: also called mhC3抗体; C3 (图5、图6)
For the molecule B1, the binding result is listed as “no binding (tested: 300μg/mL)”.
